Assay results taken from the supplement of paper PMC9170038.

System: MS2 coat protein
Assay: apparent KD of MS2 coat protein; designed switch direction (-1 OFF switch, 1 ON switch): -1; higher = weaker reporter binding
Procedure, shortened: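 Normalised cluster fluorescence was curve-fitted, and each design's median over clusters is its apparent KD. Before this, SNAP-549-labelled MS2 coat protein was titrated from 0.7 or 1.5 nM, doubling to 3 µM, over RNA switches transcribed on Illumina chips by stalled E. coli RNA polymerase. Titrations had no input, 200 uM small-molecule ligand, or an oligonucleotide input, and steps lasted 0.8–1.5 h (lowest) to 10–20 min (highest).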

[1] = Eterna round: R95, input ligand: microRNA oligo, concentration not stated
[2] = input ligand: microRNA oligo, concentration not stated
[3] = Eterna round: R95, input ligand: FMN 200 uM
[4] = Eterna round: R95, input ligand: none

Sequence: GUAGAUCGAGUUAGGAUAUGAUUACUAUCCGAAAAUCAGAAGGAACUUGAGGAUCACCCAAGUAUAGAUGAUAU [JR_BMEx4_Sub053] (Eterna round: R97, puzzle: Brourd's mod of Exclusion 4)
- apparent KD of MS2 coat protein (input ligand: FMN 200 uM): 0.0217 µM
- apparent KD of MS2 coat protein (input ligand: none): 0.0169 µM

Sequence: GAUUAAUGCAAGGAUAUGCUAUUAAUUUAUUUUGCAGAAGGUGCAACAUGAGGAUCACCCAUGUUGGAGGGUAU [JR_E6_Sub027] (puzzle: Exclusion 6)
- apparent KD of MS2 coat protein [1]: 0.0188 µM

Sequence: CUGGAGUCAGGAUAUGACGCAGUCCGCCCAAAUAGCGGAAAUCAGAAGGGACUUGAGGAUCACCCAAGUAAAAG [Qubilexe] (Eterna round: R97, puzzle: Exclusion 4)
- apparent KD of MS2 coat protein (input ligand: FMN 200 uM): 0.0297 µM
- apparent KD of MS2 coat protein (input ligand: none): 0.0218 µM

Sequence: AAAACACAUGAGGAUCACCCAUGUGAGGAUAUGUCCAUGCUCGGCAAACCGGGCAUGGACAGAAGGCACAUAAA [JR_Exclusion1_Sub015] (puzzle: Exclusion 1)
- apparent KD of MS2 coat protein [1]: 0.0403 µM

Sequence: UUUGCAAGCUUAUGAUCCCACAUGAGGAUCACCCAUGUUGCUGCCGGUGACGGUAGCAUAACAUAUGCUCGUCUUAU [JL TOV1 3.63] (Eterna round: R97, puzzle: Sensor, turn-off variant 1)
- apparent KD of MS2 coat protein (input ligand: FMN 200 uM): 0.791 µM
- apparent KD of MS2 coat protein (input ligand: none): 1.17 µM

Sequence: CGCUGGACAGGAUAUGUUCUUGGGCACUUGAGGAUCACCCAAGUCAUCGGGACAUCAGGCACAGAAGGGUUUAUGG [salish99_ex5_r4_026] (Eterna round: R97, puzzle: Exclusion 5)
- apparent KD of MS2 coat protein (input ligand: FMN 200 uM): 0.0191 µM
- apparent KD of MS2 coat protein (input ligand: none): 0.0211 µM

Sequence: GAAUAGCAAGCGAGAUCCCACAUGAGGAUCACCCAUGUGCUCGUCUUAUAAAGUACUGUGACGAUAGUCACGGUACA [Mat - Sensor, turn-off var - Eli Mod - D13] (Eterna round: R97, puzzle: Sensor, turn-off variant 1)
- apparent KD of MS2 coat protein (input ligand: FMN 200 uM): 0.0165 µM
- apparent KD of MS2 coat protein (input ligand: none): 0.0149 µM

Sequence: UAUAAGAUAGGAUAUACAGGCCCGUCUUCAUAUCGAUCCCGACAUGAGGAUCACCCAUGUAGAAGGAUCGUAUA [Mod 22 - Jieux - Exclusion 2] (Eterna round: R97, puzzle: Exclusion 2)
- apparent KD of MS2 coat protein (input ligand: FMN 200 uM): 0.015 µM
- apparent KD of MS2 coat protein (input ligand: none): 0.00825 µM

Sequence: AUAAUGCAAGCAUGGUCCCACAUGAGGAUCACCCAUGUGUUCGUCUUAUAGGCUGCUGUGGCUUUUGCCUCGUUGGC [LRO Sensor-off var1-10 loose mod of D91 from Mat747] (Eterna round: R97, puzzle: Sensor, turn-off variant 1)
- apparent KD of MS2 coat protein (input ligand: FMN 200 uM): 0.0743 µM
- apparent KD of MS2 coat protein (input ligand: none): 0.0785 µM

Sequence: GCAGAAUACUAGGAUAUGUUGGUCGGAGGGCCAACAGAAGGAGUUACAUGAGGAUCACCCAUGUUCCCAAUGGG [Eternabot (Original) Solution 49] (Eterna round: R97, puzzle: Exclusion 6)
- apparent KD of MS2 coat protein (input ligand: FMN 200 uM): 0.0661 µM
- apparent KD of MS2 coat protein (input ligand: none): 0.0527 µM

Sequence: UCGUGAUUAGAGGAUAUAUUAAGAGUCAGAACAAUAGAAGGCUAAACAUGAGGAUCACCCAUGUAAAUGUGAAA [JR_Ex6_Sub060] (Eterna round: R97, puzzle: Exclusion 6)
- apparent KD of MS2 coat protein (input ligand: FMN 200 uM): 0.172 µM
- apparent KD of MS2 coat protein (input ligand: none): 0.0355 µM

Sequence: AAUAACAAGCCGAUCCUCCACAUGAGGAUCACCCAUGUGCUCGUCUUGUAAAGUACUAUCACGAAAGUGAUAGUACA (Eterna round: R97, puzzle: Sensor, turn-off variant 1)
- apparent KD of MS2 coat protein (input ligand: FMN 200 uM): 0.0392 µM
- apparent KD of MS2 coat protein (input ligand: none): 0.044 µM

Sequence: AGUUGUUGUUUCCGUUCUUACAUGAGGAUCACCCAUGUUUCUUGUCGUGCUCGCGUUGCUCGUCUGGCUGCCUGUUG [salish99_TOv1_r3_069] (Eterna round: R96, puzzle: Sensor v3, turn-off variant 1)
- apparent KD of MS2 coat protein (input ligand: FMN 200 uM): 0.047 µM
- apparent KD of MS2 coat protein [2]: 0.028 µM
- apparent KD of MS2 coat protein (input ligand: none): 0.0464 µM

Sequence: AAGAAACAUGAGGAUCACCCAUGUGAGGAUAUGACAAAGAAAAGAAAAGAAAGAAGAGUCAGAAGGCACAAAGG [salish99-ex1_r3_038] (puzzle: Exclusion 1)
- apparent KD of MS2 coat protein [3]: 0.137 µM
- apparent KD of MS2 coat protein [1]: 0.0532 µM
- apparent KD of MS2 coat protein [4]: 0.0577 µM

Sequence: GAGGAGCAAGGAUAUACGAGGAGAGGGAAGAGAGGAGAGAGACAUGAGGAUCACCCAUGUAGAAGGUGCAAGGA [JR_Exclu2_Sub092] (puzzle: Exclusion 2)
- apparent KD of MS2 coat protein [3]: 0.046 µM
- apparent KD of MS2 coat protein [1]: 0.0354 µM
- apparent KD of MS2 coat protein [4]: 0.0438 µM

Sequence: UGCCAGAAAGGAUAUACAGCCCGGGCGUUCCUGCGAUAUAUACAUGAGGAUCACCCAUGUAGAAGGUUCGGCGG [EX2 C.12] (Eterna round: R97, puzzle: Exclusion 2)
- apparent KD of MS2 coat protein (input ligand: FMN 200 uM): 0.0331 µM
- apparent KD of MS2 coat protein (input ligand: none): 0.0285 µM

Sequence: CUUAGUAUCUAGGAUAUCUAGUACAUAGUAUCUAGAGAAGGAGAUACAUGAGGAUCACCCAUGUUCUGUGUUCU [Exclusion 6 - 1:b] (puzzle: Exclusion 6)
- apparent KD of MS2 coat protein [1]: 0.0222 µM

Sequence: GCGCCAUCGUGAGAUGGCGUACCGACAUGAGGAUCACCCAUGUAGGAUAUCGAUUGCUUUGCAGUCGAGAAGGGCGUGAUAAGU [JL ENG3 3.74] (Eterna round: R96, puzzle: Exclusion NG 3)
- apparent KD of MS2 coat protein (input ligand: FMN 200 uM): 0.0278 µM
- apparent KD of MS2 coat protein [2]: 0.0247 µM
- apparent KD of MS2 coat protein (input ligand: none): 0.0295 µM

Sequence: GAUGUGGGUUUUCAGAGUAACAUGAGGAUCACCCAUGUAGAAGUUGAAGGUAUCAAGCGAAUGGCUCGUCAUAUGUG [JR_SV3TOV1_Sub050] (puzzle: Sensor v3, turn-off variant 1)
- apparent KD of MS2 coat protein [3]: 0.161 µM
- apparent KD of MS2 coat protein [1]: 0.239 µM
- apparent KD of MS2 coat protein [4]: 0.322 µM

Sequence: UCGAAGCUAGGAUAUACAUGAGGAUCACCCAUGUGAGUAAUAACUUGGAGAUACCUCCGUAGAAGGAGCACAAA [Beatdienat] (puzzle: Exclusion 3)
- apparent KD of MS2 coat protein [3]: 0.31 µM
- apparent KD of MS2 coat protein [1]: 0.107 µM
- apparent KD of MS2 coat protein [4]: 0.125 µM

Sequence: AGUUAUGCAGGAUAUUGCGGGCCAGACAUGAGGAUCACCCAUGUGUGGGAGUCCUGCGCGCGAGAAGGGCAGACAA [EX5 B.22] (Eterna round: R97, puzzle: Exclusion 5)
- apparent KD of MS2 coat protein (input ligand: FMN 200 uM): 0.0289 µM
- apparent KD of MS2 coat protein (input ligand: none): 0.0204 µM

Sequence: UUAUAUAGUGUGAGGAUAUGCUGGUCCUUGGAUCAGCAGAAGGCACAUGAGGAUCACCCAUGUAGUUUAUUUUA [JL bmx4 3.01] (puzzle: Brourd's mod of Exclusion 4)
- apparent KD of MS2 coat protein [1]: 0.0268 µM

Sequence: CGGCAUGUACAAGGAUAUCAGCACGAUUAGUGCUGAGAAGGUGUAACAUGAGGAUCACCCAUGUAGAUCAUUAACCGAUUAAUU [ENG1/9-A2] (Eterna round: R96, puzzle: Exclusion NG 1)
- apparent KD of MS2 coat protein (input ligand: FMN 200 uM): 0.145 µM
- apparent KD of MS2 coat protein [2]: 0.0643 µM
- apparent KD of MS2 coat protein (input ligand: none): 0.0607 µM

Sequence: CCGGGCGCAGGAUAUACGUGGCCCAAAUAAAUAAUAACCACACAUGAGGAUCACCCAUGUAGAAGGGCGCCCGG [-26.59, -25.61 kcal, A 32%] (Eterna round: R97, puzzle: Exclusion 2)
- apparent KD of MS2 coat protein (input ligand: FMN 200 uM): 0.116 µM
- apparent KD of MS2 coat protein (input ligand: none): 0.0499 µM

Sequence: AAAGAAACAUGAGGAUCACCCAUGUCUGAUCCAAUGUUUAGUCAGGAUAUGCGUCCGACUUCGGAGCAGAAGGGAUACAGGUAG [Anlaanma] (Eterna round: R96, puzzle: Exclusion NG 3)
- apparent KD of MS2 coat protein (input ligand: FMN 200 uM): 0.125 µM
- apparent KD of MS2 coat protein [2]: 0.357 µM
- apparent KD of MS2 coat protein (input ligand: none): 0.356 µM

Sequence: AUGGUUCGAUUAGGAUAUUAUAGAUUGAAUAGUAUGAUUUACAUGAGGAUCACCCAUGUUACAUUUAAGAAGGAAUCGAAUCAU [JR_ExcNG2_Sub088] (Eterna round: R96, puzzle: Exclusion NG 2)
- apparent KD of MS2 coat protein (input ligand: FMN 200 uM): 0.0139 µM
- apparent KD of MS2 coat protein [2]: 0.0132 µM
- apparent KD of MS2 coat protein (input ligand: none): 0.0215 µM

Sequence: UUUAAUUUUUUUUUUUUACAAGCUUUUUGCUCGUCUUAUACAUGAGGAUCACCCAUGUAGGUGAAAGGUAAAUUAUC [JMF 65] (puzzle: Sensor v3, turn-off variant 2)
- apparent KD of MS2 coat protein [3]: 0.032 µM
- apparent KD of MS2 coat protein [1]: 0.117 µM
- apparent KD of MS2 coat protein [4]: 0.0309 µM

Sequence: AGCUUUGCUGCUCGUCCCAACAUGAGGAUCACCCAUGUUCUUAUGAAACCAUCUAGCCUAGAUGGGUCUUGCCAAAG [Eternabot (Original) Solution 47] (Eterna round: R97, puzzle: Sensor, turn-off variant 1)
- apparent KD of MS2 coat protein (input ligand: FMN 200 uM): 0.0271 µM
- apparent KD of MS2 coat protein (input ligand: none): 0.0291 µM

Sequence: AUGUGACAUGAGGAUCACCCAUGUGAGGAUAUCAUGCUUCGUAGUAAACUACGAAGUGUGAGAAGGCACAUAAC [Omei Ex1 E7] (Eterna round: R97, puzzle: Exclusion 1)
- apparent KD of MS2 coat protein (input ligand: FMN 200 uM): 0.357 µM
- apparent KD of MS2 coat protein (input ligand: none): 0.0802 µM

Sequence: UAUUAGCAAGUGAGAUCCCACAUGAGGAUCACCCAUGUGCUCGUCUUAUAACGUACUGUGACGAAAGUCACGGUACG [Sensor-V1 #81] (Eterna round: R97, puzzle: Sensor, turn-off variant 1)
- apparent KD of MS2 coat protein (input ligand: FMN 200 uM): 0.0529 µM
- apparent KD of MS2 coat protein (input ligand: none): 0.0472 µM

Sequence: AGUACUAACACGGAAGUGUUAGUACUAUAAGCUUGUGUUACAUGAGGAUCACCCAUGUCCUCAUAAGCUCGUCUUAA [Mat - Sensor v3 - Turn-off var 2 - D70] (puzzle: Sensor v3, turn-off variant 2)
- apparent KD of MS2 coat protein [3]: 0.0351 µM
- apparent KD of MS2 coat protein [1]: 0.127 µM
- apparent KD of MS2 coat protein [4]: 0.0364 µM

Sequence: ACGCGACAUGAGGAUCACCCAUGUGAGGAUAUGGCCUGUUUGUCGUGUGCUGGCUCUGUCAGAAGGCGCGUUGG [salish99_ex1_r4_042] (Eterna round: R97, puzzle: Exclusion 1)
- apparent KD of MS2 coat protein (input ligand: FMN 200 uM): 0.255 µM
- apparent KD of MS2 coat protein (input ligand: none): 0.128 µM

Sequence: GAUUAUGCAAGCUUUUGGGACAUGAGGAUCACCCAUGUUCGUCUUAUUGAUCUAGGUACGCUGACGUACCUAGAUCU [JL-sv1-2.32 Brourd mod] (puzzle: Sensor v3, turn-off variant 1)
- apparent KD of MS2 coat protein [3]: 0.0181 µM
- apparent KD of MS2 coat protein [1]: 0.0622 µM
- apparent KD of MS2 coat protein [4]: 0.0176 µM

Sequence: UCACGGGAUUGAGGAUAUAUAUGAAUUUUUUUUAUAGAAGGCAAAAUGUUAGAUUAUUCACUAUACAUGAGGAUCACCCAUGUU [JR_ExcBG1_Sub075] (Eterna round: R96, puzzle: Exclusion NG 1)
- apparent KD of MS2 coat protein [2]: 0.0203 µM
